Source: patent publication US20240034757A1 (OXFORD UNIVERSITY INNOVATION, published 2024)
Changes are numbered by the printed parent chain. Names and notes keep the numbering of the source.

T1: CCL3L1_HUMAN (human, UniProt P16619 24-93)
T1 sequence: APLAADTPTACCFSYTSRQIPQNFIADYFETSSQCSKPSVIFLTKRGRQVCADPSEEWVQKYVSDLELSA

T2: CCL5_HUMAN (human, UniProt P13501 24-91)
T2 sequence: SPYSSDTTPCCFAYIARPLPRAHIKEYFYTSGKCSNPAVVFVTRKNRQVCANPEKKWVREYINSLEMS

T3: CCL16_HUMAN (human, UniProt O15467 24-120)
T3 sequence: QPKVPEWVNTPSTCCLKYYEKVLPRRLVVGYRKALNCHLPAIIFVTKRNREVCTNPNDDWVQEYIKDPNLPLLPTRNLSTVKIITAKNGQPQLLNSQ

T4: CCL19_HUMAN (human, UniProt Q99731 22-98)
T4 sequence: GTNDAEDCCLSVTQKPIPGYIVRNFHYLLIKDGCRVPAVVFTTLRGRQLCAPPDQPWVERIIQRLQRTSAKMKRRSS

T5: CCL1_HUMAN (human, UniProt P22362 24-96)
T5 sequence: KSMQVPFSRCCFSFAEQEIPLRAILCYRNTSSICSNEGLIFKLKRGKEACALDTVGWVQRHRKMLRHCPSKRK

T6: CCL23_HUMAN (human, UniProt P55773 22-120)
T6 sequence: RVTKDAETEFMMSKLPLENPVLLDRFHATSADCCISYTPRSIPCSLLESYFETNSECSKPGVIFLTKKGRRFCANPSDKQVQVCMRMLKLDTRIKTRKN

T7: CCL18_HUMAN (human, UniProt P55774 21-89)
T7 sequence: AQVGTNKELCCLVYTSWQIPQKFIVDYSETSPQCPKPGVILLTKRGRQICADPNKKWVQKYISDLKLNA

T8: CCL22_HUMAN (human, UniProt O00626 25-93)
T8 sequence: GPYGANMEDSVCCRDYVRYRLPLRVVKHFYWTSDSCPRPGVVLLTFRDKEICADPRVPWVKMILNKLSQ

T9: CCL21_HUMAN (human, UniProt O00585 24-134)
T9 sequence: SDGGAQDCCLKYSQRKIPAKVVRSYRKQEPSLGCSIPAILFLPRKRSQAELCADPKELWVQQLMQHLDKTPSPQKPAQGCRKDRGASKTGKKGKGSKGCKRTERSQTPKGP

T10: CCL4L1_HUMAN (human, UniProt Q8NHW4 24-92)
T10 sequence: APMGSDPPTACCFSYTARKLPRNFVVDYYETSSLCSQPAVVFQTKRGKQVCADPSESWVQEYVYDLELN

T11: CCL4_HUMAN (human, UniProt P13236 24-92)
T11 sequence: T10 sequence with G47S

T12: CCL8_HUMAN (human, UniProt P80075 24-99)
T12 sequence (looked up): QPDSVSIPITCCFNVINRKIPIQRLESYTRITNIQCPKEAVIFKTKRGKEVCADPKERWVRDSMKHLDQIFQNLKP

T13: CCL27_HUMAN (human, UniProt Q9Y4X3 25-112)
T13 sequence: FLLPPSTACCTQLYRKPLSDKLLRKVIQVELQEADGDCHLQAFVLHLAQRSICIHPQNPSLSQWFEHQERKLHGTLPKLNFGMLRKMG

T14: CCL17_HUMAN (human, UniProt Q92583 24-94)
T14 sequence: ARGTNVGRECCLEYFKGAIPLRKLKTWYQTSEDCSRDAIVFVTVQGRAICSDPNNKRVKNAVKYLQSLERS

T15: CCL24_HUMAN (human, UniProt O00175 27-104)
T15 sequence: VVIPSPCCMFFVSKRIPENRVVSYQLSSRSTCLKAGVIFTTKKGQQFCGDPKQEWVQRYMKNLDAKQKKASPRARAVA

T16: CCL3_HUMAN (human, UniProt P10147 24-92)
T16 sequence: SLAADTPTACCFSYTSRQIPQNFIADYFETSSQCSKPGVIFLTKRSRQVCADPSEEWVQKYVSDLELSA

B1: P991:G4S:P1156 (designed binder)
chain: ENGEGTTQPDYDNSTDYYNYEDFKCTCPAPHLNNTNGTVMKPIGCYYTCNVTRCTAPDTYPCYNLTEHQAKNLTTSPTTLCAVGNCDHGICVPNGTKELCFKAPNLEEGGGGSADDDNELFTVQYCGMNCTKDEGGTWTGCTGKKEGCKCYHESGKNYGLCLSTEYTDFSQYGNPSDSEIEAAKPKRSDTLSH
B2: P1156:G4S:P991 (designed binder)
chain: ADDDNELFTVQYCGMNCTKDEGGTWTGCTGKKEGCKCYHESGKNYGLCLSTEYTDFSQYGNPSDSEIEAAKPKRSDTLSHGGGGSENGEGTTQPDYDNSTDYYNYEDFKCTCPAPHLNNTNGTVMKPIGCYYTCNVTRCTAPDTYPCYNLTEHQAKNLTTSPTTLCAVGNCDHGICVPNGTKELCFKAPNLEE
notes: also called two-warhead evasin

How the values were obtained:
Assay in all cases: BLI
CCL3L1_HUMAN = biological target: T1, CCL3L1_HUMAN
CCL5_HUMAN = biological target: T2, CCL5_HUMAN
CCL16_HUMAN = biological target: T3, CCL16_HUMAN
CCL19_HUMAN = biological target: T4, CCL19_HUMAN
CCL20_HUMAN = CCL20_HUMAN (human, UniProt P78556 27-96)
Chain of CCL20_HUMAN (P78556 27-96 limits assumed): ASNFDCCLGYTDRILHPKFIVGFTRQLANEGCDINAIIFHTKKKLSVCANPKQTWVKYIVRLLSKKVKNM

CCL1_HUMAN = biological target: T5, CCL1_HUMAN
CCL23_HUMAN = biological target: T6, CCL23_HUMAN
CCL7_HUMAN = CCL7_HUMAN (human, UniProt P80098 24-99)
Chain of CCL7_HUMAN (P80098 24-99 limits assumed): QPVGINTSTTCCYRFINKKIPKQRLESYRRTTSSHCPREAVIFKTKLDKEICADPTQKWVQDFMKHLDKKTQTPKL

CCL18_HUMAN = biological target: T7, CCL18_HUMAN
CCL22_HUMAN = biological target: T8, CCL22_HUMAN
CCL21_HUMAN = biological target: T9, CCL21_HUMAN
CCL4L1_HUMAN = biological target: T10, CCL4L1_HUMAN
CCL4_HUMAN = biological target: T11, CCL4_HUMAN
CCL8_HUMAN = biological target: T12, CCL8_HUMAN
CCL13_HUMAN = CCL13_HUMAN (human, UniProt Q99616 24-98)
Chain of CCL13_HUMAN (Q99616 24-98 limits assumed): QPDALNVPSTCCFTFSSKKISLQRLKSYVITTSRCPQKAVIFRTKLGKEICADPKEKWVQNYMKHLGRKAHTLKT

CCL27_HUMAN = biological target: T13, CCL27_HUMAN
CCL11_HUMAN = CCL11_HUMAN (human, UniProt P51671 24-97)
Chain of CCL11_HUMAN (P51671 24-97 limits assumed): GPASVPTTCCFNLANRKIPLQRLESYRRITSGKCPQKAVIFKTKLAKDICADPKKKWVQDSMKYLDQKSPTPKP

CCL17_HUMAN = biological target: T14, CCL17_HUMAN
CCL2_HUMAN = CCL2_HUMAN (human, UniProt P13500 24-99)
Chain of CCL2_HUMAN (P13500 24-99 limits assumed): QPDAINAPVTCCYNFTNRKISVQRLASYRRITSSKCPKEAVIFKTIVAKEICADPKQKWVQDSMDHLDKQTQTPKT

CCL24_HUMAN = biological target: T15, CCL24_HUMAN
CCL3_HUMAN = biological target: T16, CCL3_HUMAN
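Note: biolayer interferometry of evasin binding to chemokines, poorly fitted curves (R² under 0.9) discarded, every experiment run three or more times.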

Binder | Kd (CCL3L1_HUMAN) | RT (CCL3L1_HUMAN) | Kd (CCL5_HUMAN) | RT (CCL5_HUMAN) | Kd (CCL16_HUMAN) | RT (CCL16_HUMAN) | binding result (CCL19_HUMAN) | binding result (CCL20_HUMAN) | Kd (CCL1_HUMAN) | RT (CCL1_HUMAN) | Kd (CCL23_HUMAN) | RT (CCL23_HUMAN) | Kd (CCL7_HUMAN) | RT (CCL7_HUMAN) | Kd (CCL18_HUMAN) | RT (CCL18_HUMAN) | Kd (CCL22_HUMAN) | RT (CCL22_HUMAN) | Kd (CCL21_HUMAN) | RT (CCL21_HUMAN) | other results
B1 | 2.91 nM | 43.8 min | 0.947 nM | 92 min | 0.636 nM | 72.4 min | no binding | no binding | 7.66 nM | 4.13 min | 5.13 nM | 35.2 min | 0.287 nM | 375 min | 0.143 nM | 293 min | 2.36 nM | 15.6 min | 18.2 nM | 17.7 min | Kd (CCL4L1_HUMAN): 1.24 nM; RT (CCL4L1_HUMAN): 38.3 min; Kd (CCL4_HUMAN): 3.54 nM; RT (CCL4_HUMAN): 28.1 min; Kd (CCL8_HUMAN): 7.89 nM; RT (CCL8_HUMAN): 16.6 min; Kd (CCL13_HUMAN): 0.176 nM; RT (CCL13_HUMAN): 276 min; Kd (CCL27_HUMAN): 42.6 nM; RT (CCL27_HUMAN): 2.91 min; Kd (CCL11_HUMAN): 1.39 nM; RT (CCL11_HUMAN): 30.6 min; Kd (CCL17_HUMAN): 5.8 nM; RT (CCL17_HUMAN): 11.6 min; Kd (CCL2_HUMAN): 24.8 nM; RT (CCL2_HUMAN): 4.02 min; Kd (CCL24_HUMAN): 3.18 nM; RT (CCL24_HUMAN): 8.52 min; Kd (CCL3_HUMAN): 2.22 nM; RT (CCL3_HUMAN): 37.1 min
B2 | 3.09 nM | 34.7 min | 0.754 nM | 103 min | 0.503 nM | 92.5 min | no binding | no binding | 16.6 nM | 2.01 min | 7 nM | 28.5 min | 0.435 nM | 231 min | 0.201 nM | 182 min | 2.18 nM | 15.8 min | 19.9 nM | 15.3 min | Kd (CCL4L1_HUMAN): 1.28 nM; RT (CCL4L1_HUMAN): 33.8 min; Kd (CCL4_HUMAN): 3.55 nM; RT (CCL4_HUMAN): 26.6 min; Kd (CCL8_HUMAN): 7.45 nM; RT (CCL8_HUMAN): 15.3 min; Kd (CCL13_HUMAN): 0.207 nM; RT (CCL13_HUMAN): 221 min; Kd (CCL27_HUMAN): 36.2 nM; RT (CCL27_HUMAN): 3.4 min; Kd (CCL11_HUMAN): 1.54 nM; RT (CCL11_HUMAN): 24.8 min; Kd (CCL17_HUMAN): 7.44 nM; RT (CCL17_HUMAN): 8.6 min; Kd (CCL2_HUMAN): 32.1 nM; RT (CCL2_HUMAN): 3.25 min; Kd (CCL24_HUMAN): 3.58 nM; RT (CCL24_HUMAN): 6.75 min; Kd (CCL3_HUMAN): 1.89 nM; RT (CCL3_HUMAN): 38.2 min
